Twelve molecules from US20230295310A1 (ABCELLERA BIOLOGICS, published 2023) can be followed below.

The target of test [1] is T1, human CD3 expressed on cells (human, UniProt P07766 23-207; P04234 22-171; P09693 23-182).
T1 construct: whole, on cells; CD3 complex on Jurkat cells and on human primary T cells
In words: flow cytometry, 25 nM. The essentials:
(§1)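 Binding reported as fold over isotype: median fluorescence intensity divided by isotype control, with ≥10 scored positive. Cells were exposed to 25 nM antibody in PBS/2% FBS, 30 min, 4 °C, before flow cytometric read-out.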

The target of test [2] is T2, cynomolgus monkey CD3 expressed on primary T cells (cynomolgus monkey, UniProt Q95LI5 22-198; Q95LI8 22-171; Q95LI7 23-181).
T2 construct: whole, on cells; CD3 complex on purified cynomolgus monkey T cells; also called cyno CD3
In words: flow cytometry, 25 nM. In short, it runs like this:
as §1

Test [3] concerns the target T3, human CD3 expressed on cells (Jurkat cells; human primary T cells) (human, UniProt P07766 23-207; P04234 22-171; P09693 23-182).
T3 construct: whole, on cells
In words: flow cytometry, 25 nM, Jurkat cells. The essentials:
as §1

For test [4], the target named is T4, cynomolgus monkey CD3 expressed on cyno primary T cells (cynomolgus monkey, UniProt Q95LI5 22-198; Q95LI8 22-171; Q95LI7 23-181).
T4 construct: whole, on cells; CD3 complex on purified cynomolgus monkey CD3 pan T cells; also called cyno CD3
In words: flow cytometry, 25 nM, cyno primary T cells. The essentials: as §1

Test [5] deals with T3, human CD3 expressed on cells (Jurkat …). As to the kind of experiment: flow cytometry, 25 nM, human primary T cells. The essentials: as §1
For test [6], the target named is T2, cynomolgus monkey CD3 expressed on …. In words: flow cytometry, 25 nM, cyno primary T cells. In short, it runs like this: as §1
The target in test [7] is T1, human CD3 expressed on cells. In words: flow cytometry, human primary T cells (Jurkat cells in c2 gave 15.495, CD3 KO Jurkat cells in c3 gave 38.63). As to the method: Purified antibodies were confirmed to bind CD3 expressed on cells using the CytoFLEX S or LX flow cytometers (Beckman Coulter). Antibodies were diluted to 25 nM in FACS buffer (PBS+2% FBS) and were incubated with CD3-expressing cells for 30 minutes at 4° C. […] The median fluorescence intensity of the binding signal for each antibody was normalized to the isotype control to obtain a fold over isotype value. An antibody with a fold over isotype (FOI) of ≥10 was considered to be positive for binding.

T4 sequence (Q95LI5 22-198, chain 1 of 3): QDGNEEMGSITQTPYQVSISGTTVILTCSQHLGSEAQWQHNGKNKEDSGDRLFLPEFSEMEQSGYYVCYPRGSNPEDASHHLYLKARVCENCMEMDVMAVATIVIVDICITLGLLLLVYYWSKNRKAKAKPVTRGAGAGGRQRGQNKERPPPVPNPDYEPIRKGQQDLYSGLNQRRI
T4 sequence (Q95LI8 22-171, chain 2 of 3): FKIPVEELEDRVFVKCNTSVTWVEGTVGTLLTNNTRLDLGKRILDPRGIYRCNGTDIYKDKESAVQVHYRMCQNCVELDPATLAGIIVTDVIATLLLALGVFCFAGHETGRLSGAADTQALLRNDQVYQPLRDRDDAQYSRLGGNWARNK
T4 sequence (Q95LI7 23-181, chain 3 of 3): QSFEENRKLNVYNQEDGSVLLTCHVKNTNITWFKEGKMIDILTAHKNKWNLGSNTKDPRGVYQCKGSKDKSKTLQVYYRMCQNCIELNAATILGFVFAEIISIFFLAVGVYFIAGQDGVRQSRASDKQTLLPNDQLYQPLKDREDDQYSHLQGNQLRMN
T2 sequence (Q95LI5 22-198, chain 1 of 3): as the sequence (Q95LI5 22-198, chain 1 of 3) above
T2 sequence (Q95LI8 22-171, chain 2 of 3): as the sequence (Q95LI8 22-171, chain 2 of 3) above
T2 sequence (Q95LI7 23-181, chain 3 of 3): as the sequence (Q95LI7 23-181, chain 3 of 3) above
T1 sequence (P07766 23-207, chain 1 of 3): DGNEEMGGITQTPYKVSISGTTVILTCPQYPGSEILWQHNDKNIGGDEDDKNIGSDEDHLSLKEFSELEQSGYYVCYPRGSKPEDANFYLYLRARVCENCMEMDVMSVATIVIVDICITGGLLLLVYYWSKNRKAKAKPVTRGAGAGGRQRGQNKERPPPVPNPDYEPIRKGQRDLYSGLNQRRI
T1 sequence (P04234 22-171, chain 2 of 3): as the sequence (Q95LI8 22-171, chain 2 of 3) above, with V5I, K15N, V20I, T32S, N33D, N34I, A64T, N74S, L83V, R141H counted along it
T1 sequence (P09693 23-182, chain 3 of 3): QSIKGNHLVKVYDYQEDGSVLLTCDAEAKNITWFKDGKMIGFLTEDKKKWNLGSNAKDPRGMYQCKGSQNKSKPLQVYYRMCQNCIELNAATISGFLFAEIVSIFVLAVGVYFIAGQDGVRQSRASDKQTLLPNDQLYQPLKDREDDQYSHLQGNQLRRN
T3 sequence (P07766 23-207, chain 1 of 3): as the sequence (P07766 23-207, chain 1 of 3) above
T3 sequence (P04234 22-171, chain 2 of 3): as the sequence (Q95LI8 22-171, chain 2 of 3) above, with V5I, K15N, V20I, T32S, N33D, N34I, A64T, N74S, L83V, R141H counted along it
T3 sequence (P09693 23-182, chain 3 of 3): as the sequence (P09693 23-182, chain 3 of 3) above

B1: mAb 70 (antibody, V domains shown)
VH: QGQLVESGGGVVQPGRSLRLSCEASGFTFRSYGMHWVRQPPGKGLEWVAIIWYDGGKKYYGDSVKGRFTISRDNPKNTLYLQMNSLRPEDTAVYYCMAYDYSNGFDIWGQGTMVTVSS
VL: DIVMTQTPLSSPVTLGQPASISCRSSQSFVHSDGSTYLSWLQQRPGQPPRLLIYKISNRFSGVPDRFSGRGAGTDFTLKISRVEAEDVGIYYCMQNTQFPYTFGQGTKLEIK
On to B1, for which, in test [1], the “Human primary T Cell Binding (FOI)” value worked out at 131 FOI and the “Jurkat Cell Binding (FOI)” value is 140 FOI. Moreover, the “Cyno primary T Cell Binding (FOI)” value in test [2] was found to be 238 FOI.

B2: mAb 153 (antibody, V domains shown)
VH: QVQLVESGGGVVQPGRSLRLSCAASGFTFSTYGMHWVRQAPGKGLEWVAVIWYDGSHKYYSDSVKGRFTISRDNSKNTLYLQMNSLRVEDTAIYYCARTGITGTTAYFYFDSWGQGTLVTVSS
VL: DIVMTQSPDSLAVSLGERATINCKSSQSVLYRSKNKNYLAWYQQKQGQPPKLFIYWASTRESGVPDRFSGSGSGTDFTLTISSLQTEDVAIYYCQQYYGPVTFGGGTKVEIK
With B2, in test [1], the “Human primary T Cell Binding (FOI)” value was found to be 262 FOI and the “Jurkat Cell Binding (FOI)” value came to 98.5 FOI. Besides, the “Cyno primary T Cell Binding (FOI)” value in test [2] was determined as 26.1 FOI.

B3: mAb 78 (antibody, V domains shown)
VH: EVQLVESGGGLVQPGGSLRLSCAASGFTFSSYWMSWVRQAPGKGLEWVANIKQDGSEKYYVDSVKGRFTISRDNAKNSLYLQMNSLRAEDTAVYYCARDNSPSFYWYFDLWGRGTLVTVSS
VL: DIQMTQSPSTLSASVGDRVTITCRASQSLSRWLAWYQQKPGKAPKLLIYKASSLESGVPSRFSGSGSGTEFTLTISSLQPDDFATYYCQQYYTYSRTFGQGTKVEIK
As to B3, in test [1], the “Human primary T Cell Binding (FOI)” value turned out to be 116 FOI and the “Jurkat Cell Binding (FOI)” value was 104 FOI. Besides, in test [2], the “Cyno primary T Cell Binding (FOI)” value worked out at 41.6 FOI.

B4: mAb 176 (antibody, V domains shown)
VH: EVELVESGGGLVQPGRSLRLSCAASGFKFDDYTMHWVRLPPGKGLEWVSGISWNSGTIDYGDSVKGRFTISRDNAKNSLYLQMNSLRVEDTALYYCAKDTSGYGHYFYYYMDVWGKGTTVTVSS
VL: DIQMTQSPSSLSASIGDRVSITCRTSQIINNYLNWYQQKPGKAPKVLIYSASSLQSGVPSRFSGSGSGTDFTLTINSLQPEDFATYYCQQSYNFPITFGQGTRLELK
notes: VH/VL only
Take B4: the “Binding (FOI)” value was 114 FOI in test [3], 34 FOI in test [4] and 147 FOI in test [5].

B5: mAb 177 (antibody, V domains shown)
VH: EVQLVESGGGLVQPGMSLRLSCAASGFTFDDYTMHWVRQSPGKGLEWVAGISWNSGTIGYGDSMKGRFTISRDNAKNSLDLQMNSLRVEDTALYYCAKDTSGYGHYYYYFMDVWGKGTTVTVSS
VL: DIQMTQSPSSLSASIGDRVSITCRTSQIINNYLNWYQQKPGKAPKLLIYSASSLQSGVPSRFSGSGSGTDFTLTLSSLQPEDFATYFCQQSYNFPITFGQGTRLELK
notes: VH/VL only; the printed VL holds a letter U
For B5, the “Binding (FOI)” value in test [3] turned out to be 121 FOI; in test [4] it was 45.1 FOI; in test [5], 146 FOI.

B6: mAb 178 (antibody, V domains shown)
VH: EVQLVESGGGLVQPGRSLRLSCAASGFTFDDYTMHWVRQAPGKGLEWVSDISWNSGTIGYADSVKGRFTISRDNAKNSLYLQMNSLRAEDTALYYCVKDSSGYGHYYKYYMDVWGKGTTVTVSS
VL: DIQMTQSPSSLSASVGDRVTITCRASQSISNYLNWYQQKAGKVPKVLIYGSSSLQSGVPSRFSGSGSGTDFTLTISSLQPEDFASYYCQQTYSSPLTFGGGTKVDFK
notes: VH/VL only
With B6, the “Binding (FOI)” value in test [3] was 128 FOI; in test [4] it was 158 FOI; in test [5], 172 FOI.

B7: mAb 180 (antibody, V domains shown)
VH: EVNLVESGGGLVQPGRSLRLSCAASGFTFDDYTMHWVRQVPGKGLEWVSNISWNSGSLGYADSVKGRFTISRDNAKDSLYLQMNSLRVEDTALYYCAKDSSGYGHYNSYYMDVWGKGTTVTVSS
VL: DIQMTQSPSSLSASVGDRVTITCRASQSIRNYLNWYQQKPGKAPKVLIYSASSLQSGVPSRFSGSGSGTDFTLTISSLQPEDFASFYCQQTYSTPITFGQGTRLEIK
notes: VH/VL only
B7: in test [4], the “Binding (FOI)” value was determined as 90.2 FOI.

B8: mAb 158 (antibody, V domains shown)
VH: EVQLVESGGGLVQPGRSLRLSCAASGFTFADYTMHWVRQVPGKGLEWVSGISWNSGSVDYADSVKGRFTISRDNAKKTLYLQMNSLRAEDTALYYCAKDSSGYGHYYFYYLDVWGKGTTVTVSS
VL: EIVMTQSPATLSVSPGERATLSCRATQSVSSNLAWYQQKPGQAPRLLIYSTSTRATGIPARFSGSRSGTEFTLTISSLQSEDSAVYYCQQYNNWPHFGQGTRLEIK
As for B8, in test [1], the “Human primary T Cell Binding (FOI)” value was 164 FOI and the “Jurkat Cell Binding (FOI)” value was found to be 117 FOI. Further, the “Cyno primary T Cell Binding (FOI)” value in test [2] came to 10.9 FOI.

B9: mAb 179 (antibody, V domains shown)
VH: EVQLVESGGGLVQPGRSLRLSCAASGFTFDDYTMHWVRQTPGKGLEWVSDISWNSGSIGYADSVKGRFTISRDNAKNTLYLQMNSLRAEDTALYYCVKDSSGYGHYLYYYMDVWGKGTTVTVSS
VL: DIQMTQSPSSLSASVGDRVTITCRASQSIRNYLNWYQQSPGRAPKLLIFSASSLQSGVPSRFSGSGSGTDFTLTISSLQPEDFVTYYCQQRYSTPITFGQGTRLEIK
notes: VH/VL only
As for B9, the “Binding (FOI)” value came to 129 FOI in test [3], 54.2 FOI in test [4] and 177 FOI in test [5].

B10: mAb 171 (antibody, V domains shown)
VH: EVQLVESGGGLVQPGRSLRLSCAASGFTFADYTMHWVRQAPGQGLEWVSGISWNSGSIDYADSVKGRFIISRDNAKKTLYLQMNSLRAEDTALYYCAKDSSGYGHYYFYYLDVWGKGTTVTVSS
VL: EIVMTQSPATLSVSPGERATLSCRASQSVSSNLAWYQQKPGQAPRLLIYSTSTRATGIPARFSGSRSGTEFTLTISSLQSEDSAVYYCQQYNNWPHFGQGTRLEIK
notes: VH/VL only
For B10, the “Binding (FOI)” value is 108 FOI in test [3], 20.1 FOI in test [4] and 165 FOI in test [5].

B11: mAb 121 (antibody, V domains shown)
VH: EVQLVESGGGLVQPGRSLRLSCATSGFTFADYTMHWVRQAPGKGLEWVSGISWNSGSIDYADSVKGRFTISRDNAKKSLYLQMNSLRAEDTALYFCAKDSSGYGHYYFYYLDVWGKGTTVTVSS
VL: EIVMTQSPGTLSVSPGKRATLSCRASQSVSSNLAWYQQKPGQGPRLLIYSTSTRATGIPARFSGSGSGTEFTLTISSLQSEDSAVYYCQHYNNWPHFGQGTRLEIK
On to B11, for which, in test [1], the “Human primary T Cell Binding (FOI)” value came to 101 FOI and the “Jurkat Cell Binding (FOI)” value amounted to 101 FOI. In test [2], the “Cyno primary T Cell Binding (FOI)” value amounted to 12.2 FOI.

B12: mAb 143 (antibody, V domains shown)
VH: QVQLMQSGSELEKPGASVKVSCKASGYTFTSFAINWVRQAPGQGLEWMGWINTITGNPSYAQGFTGRFVFSLDTSVTTAFLQINSLKTEDTAVYYCARYVTSSGKFDYWGQGTLVTVSS
VL: DIQMTQSPSSVSASVGDRVTITCRASRGISRWLDWYQQKPGKAPKLLIYAASNLQGGVPSRFSGSGSGTDFTLTIRSLQPEDFAIYYCQQAKTFPFTFGPGTKVDIK
With B12, the “Jurkat Cell Binding (FOI)” value in test [1] worked out at 15.5 FOI. Besides, the binding result in test [6] is given as “no binding (tested: FOI >=10 = positive)”; in test [7], “no binding (tested: FOI >=10 = positive; 25 nM)”.
